Experimental data taken from patent publication US20250277030A1, “ANTI-NAPI2B ANTIBODIES AND METHODS OF USE” (Zymeworks BC Inc., priority 2022, published 2025).

Target: Insulin (Sigma-Aldrich, 19278) (UniProt P01308)
Assay: non-specific binding ELISA, insulin coated at 5 µg/mL, antibody at 100 nM

Insulin (Sigma-Aldrich, 19278), sequence (P01308 25-54 limits assumed, chain 1 of 2): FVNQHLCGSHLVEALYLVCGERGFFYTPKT
Insulin (Sigma-Aldrich, 19278), sequence (P01308 90-110 limits assumed, chain 2 of 2): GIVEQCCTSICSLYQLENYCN

- NS-ELISA binding score (ratio of signal between antibody-treated and untreated): 1.03
B1: v29452 humanized anti-NaPi2b antibody (H1L3) (antibody, human IgG1, kappa, V domains shown)
VH: QVQLVQSGAEVKKPGASVKVSCKASGFTFTSYNVHWVRQAPGQGLEWMGAISPGNGDLSYAQKFQGRVTMTRDTSTSTVYMELSSLRSEDTAVYYCARGRTGMGAVDYWGQGTLVTVSS
VL: DVQMTQSPSSLSASVGDRVTITCRASQDVYSYLNWYQQKPGKAVKLLIYYTSRLQSGVPSRFSGSGSGTDYTLTISSLQPEDIATYYCQQYNIFPWTFGQGTKLEIKR
